{"source": "patent US9260507B2", "about": "“Peptide promoting cell adhesion and migration” (Symatese, priority 2009, dated 2016)", "molecules": {"B1": {"name": "LG4/5 protein: purified recombinant LG4/5 domain of the alpha3 chain of pre-LN332 (laminin 332) (protein)", "chain": "DTPVASPRSVKVWQDACSPLPKTQANHGALQFGDIPTSHLLFKLPQELLKPRSQFAVDMQTTSSRGLVFHTGTKNSFMALYLSKGRLVFALGTDGKKLRIKSKEKCNDGKWHTVVFGHDGEKGRLVVDGLRAREGSLPGNSTISIRAPVYLGSPPSGKPKSLPTNSFVGCLKNFQLDSKPLYTPSSSFGVSSCLGGPLEKGIYFSEEGGHVVLAHSVLLGPEFKLVFSIRPRSLTGILIHIGSQPGKHLCVYLEAGKVTASMDSGAGGTSTSVTPKQSLCDGQWHSVAVTIKQHILHLELDTDSSYTAGQIPFPPASTQEPLHLGGAPANLTTLRIPVWKSFFGCLRNIHVNHIPVPVTEALEVQGPVSLNGCPDQ"}}, "key": {"normal human fibroblasts": {"tested_on": "normal human fibroblasts", "experiment": "Cell adhesion test (crystal violet colorimetric), normal human fibroblasts", "type": "cell-based", "settings": "5 μg peptide or 1 μg LG4/5 protein immobilised, FIG. 14B", "method": "(A) Showing the binding of syndecan-1 to the peptide KKLRIKSKEK (SEQ ID NO: 1). A lysate of normal human fibroblasts and a lysate of normal human keratinocytes were prepared as described in the Materials and Methods section and 2 mg of each lysate were incubated with neutravidin beads not coated or coated with the biotinylated peptide KKLRIKSKEK (SEQ ID NO: 1). A positive control was performed with the keratinocyte lysate to compare the size and quantity of syndecan-1 in the 2 cell types. After washing, the material bound to the beads was digested with a mixture of heparitinase I and chondroitinase ABC to release the protein part of the syndecan-1 from the glycosaminoglycans. The samples were then analysed by SDS PAGE electrophoresis in an 8% acrylamide gel under non-reducing conditions and by immunoblotting with polyclonal anti-syndecan antibody H174. The position of molecular weight markers is shown on the left. (B, C) Cell adhesion of normal human fibroblasts to the peptide KKLRIKSKEK (SEQ ID NO: 1) and to the LG4/5 protein. In one case (B), 5 μg of peptide KKLRIKSKEK (SEQ ID NO: 1) and 1 μg of protein LG4/5 were immobilised on a 96-well plate and in the other (C), the peptide KKLRIKSKEK (SEQ ID NO: 1) was immobilised at the concentrations indicated in the abscissa. […] After washing, the adherent cells were fixed and cell adhesion was measured as described in the methodology section. […]"}, "HT1080 cells": {"tested_on": "HT1080 cells", "experiment": "Inhibition of cell adhesion by competition (HT1080 cells on LG4/5 and LN332 substrates)", "type": "cell-based, Human", "settings": "competitor in solution: peptide 20 μg/ml, LG4/5 protein 10 μg/ml, anti-LG4/5 antibody 10 μg/ml applied to substrate", "method": "The LG4/5 (white bars) and LN332 (grey bars) proteins (1 μg/well) were adsorbed in 96-well plates. (A) Effect of the polyclonal anti-LG4/5 antibody on cell adhesion to the LG4/5 and LN332 protein. After saturating the wells, a solution of anti-LG4/5 antibody (10 μg/ml) was applied for one hour before performing the adhesion test with HT1080 cells (6·10^4 cells/well). (B, C) Effect of the LG4/5 protein and the peptide KKLRIKSKEK (SEQ ID NO: 1) in solution on syndecan-1 dependent adhesion to the LG4/5 fragment. The HT1080 cells were detached from the dishes and put into the wells (6·10^4 cells/well) as they were or in the presence of the LG4/5 protein (10 μg/ml) or the peptide KKLRIKSKEK (SEQ ID NO: 1) (20 μg/ml) as indicated on the graph. (A, B, C) The plates were incubated at 37° C. for 1 hour. After washing, the adherent cells were fixed and cell adhesion was measured as described in the methodology section. Cell adhesion in the presence of antibodies or competitor proteins was shown as a percentage of the cell adhesion obtained on the same substrate without competitor.\n96-well plates were coated with the amounts indicated of peptide KKLRIKSKEK (SEQ ID NO: 1) or laminin 332 by adsorption at +4° C. for 16 to 18 hours. As before, the wells were saturated with a solution of 1% PBS-BSA for one hour. […]"}, "[1]": {"tested_on": "normal human keratinocytes", "experiment": "NHK wound closure in a confluent keratinocyte layer (time-lapse videomicroscopy)", "type": "cell-based", "settings": "LG4/5 protein 10 μg/ml, peptide 20 μg/ml", "method": "NHKs were seeded in 24-well plates and grown until confluence. The medium was removed and a wound was made in the cell layer using a pipette tip. After rinsing with PBS, the areas were incubated with KBM-2 culture medium at 37° C. in the absence or presence of LG4/5 protein (10 μg/ml) or the peptide KKLRIKSKEK (SEQ ID NO: 1) (20 μg/ml). The behaviour of cells around the wound was then immediately followed by time-lapse videomicroscopy with an image recorded every hour for 48 hours in a moist chamber containing 5% CO2. (A) Images recorded at the beginning of the experiment, at 24 h and 48 h show the total area of the wound covered by cells during the experiment and under each condition (the black lines represent the edges of the wound at the start of recording). Bar, […]. (B) The wounded areas (without cells) were measured at the start, at 24 h (grey bars) and 48 h (black bars) using the Adobe Photoshop CS3 Extended program (version 10.0) in the different conditions. The rate of closure of each wound was expressed as a percentage of the initial wound. […]\nVideomicroscopy experiments were performed with a Zeiss Axiovert 100M microscope fitted with a CCD camera (1 image every 10 minutes or every hour). In the experiments of FIG. 11, we analysed the movements of 100 cells using Metaview software (Roper Scientific, Princeton Instruments, Evry, France)."}, "[2]": {"tested_on": "normal human keratinocytes", "experiment": "Cell viability test (XTT)", "settings": "100 to 1 μg/ml, medium renewed every two days (repeated twice)", "protocol": "NHKs were seeded in 96-well plates at 10^4 cells per well. After 24 hours, the culture media were removed and replaced with KBM-2 medium containing the concentrations of peptide [sequence] (SEQ ID NO: 1) (upper curve) or LG4/5 protein (lower curve) shown. After 48 h of contact at 37° C. the media were removed and this step was repeated twice. After 48 h of contact at 37° C. the media were replaced by XTT reagent. The plates were then placed in an incubator at 37° C. and the absorption was read after 6 hours. Controls with neither peptide nor protein were made on the same plate.\nThe effect of the peptide on the cell viability of the normal human keratinocytes was analysed using a colorimetric assay (XTT Cell Proliferation Kit, Roche Diagnostics, Meylan, France). A control with the LG4/5 protein was carried out in parallel. The chemical reaction of the test is based on the production of NADPH in living cells reducing yellow tetrazolium XTT salts to orange formazan salts. Absorption at 490 nm is measured using an ELISA plate reader. […] In this case, cell viability was calculated from the formula: % viability=(Abs. cells with peptide/Abs. control cells)×100."}}, "data": [{"molecule": "B1", "values": [{"measurement": "Adhesion of human dermal fibroblasts to the immobilised substrate", "setting": "normal human fibroblasts", "result": "adhere"}, {"measurement": "Effect on HT1080 cell adhesion to the immobilised LG4/5 fragment", "setting": "HT1080 cells; LG4/5 substrate 1 μg/well", "result": "blocked adhesion to the immobilised LG4/5 fragment"}, {"measurement": "Effect on HT1080 cell adhesion to LN332", "setting": "HT1080 cells; LN332 substrate 1 μg/well", "result": "without affecting adhesion to LN332"}, {"measurement": "Area of the wound covered by cells (wound closure)", "setting": "[1]; 24 h", "result": 65, "unit": "%"}, {"measurement": "Area of the wound covered by cells (wound closure)", "setting": "[1]; 48 h", "result": 91, "unit": "%"}, {"measurement": "Cytotoxic effect on epidermal keratinocytes (percentage of viable cells vs controls)", "setting": "[2]", "result": "neither peptide […] (SEQ ID NO: 1) nor protein LG4/5 has any long-term cytotoxic effect"}]}]}
